Test results: paper PMC2756588

T1: Cdc25, P04821
T1 sequence (P04821 50-136, looked up): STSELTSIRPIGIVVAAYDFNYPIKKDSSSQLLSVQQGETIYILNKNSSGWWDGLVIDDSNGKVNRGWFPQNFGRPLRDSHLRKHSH

T2: Lsb1, P53281
T2 sequence (P53281 45-122, looked up): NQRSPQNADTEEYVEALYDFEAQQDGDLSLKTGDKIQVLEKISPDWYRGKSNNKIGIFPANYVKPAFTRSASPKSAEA

T3: Bud14, P27637
T3 sequence (P27637 247-328, looked up): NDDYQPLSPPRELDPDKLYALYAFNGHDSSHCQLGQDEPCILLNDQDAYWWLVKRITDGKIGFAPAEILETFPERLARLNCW

T4: Pex13, P80667
T4 sequence (P80667 295-386, looked up): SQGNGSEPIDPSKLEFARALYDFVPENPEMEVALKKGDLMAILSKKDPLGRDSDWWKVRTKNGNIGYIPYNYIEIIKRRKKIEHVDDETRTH

T5: Lsb3, P43603
T5 sequence (P43603 385-451, looked up): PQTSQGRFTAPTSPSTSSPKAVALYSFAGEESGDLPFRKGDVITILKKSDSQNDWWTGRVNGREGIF

T6: Pin3, Q06449
T6 sequence (Q06449 53-122, looked up): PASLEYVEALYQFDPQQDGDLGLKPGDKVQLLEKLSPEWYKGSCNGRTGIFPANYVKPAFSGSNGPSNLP

T7: Sla1-2, P32790
T7 sequence (P32790 60-140, looked up): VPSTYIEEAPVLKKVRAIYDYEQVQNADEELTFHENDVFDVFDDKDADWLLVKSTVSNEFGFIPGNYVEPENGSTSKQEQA

T8: Hof1, Q05080
T8 sequence (Q05080 590-669, looked up): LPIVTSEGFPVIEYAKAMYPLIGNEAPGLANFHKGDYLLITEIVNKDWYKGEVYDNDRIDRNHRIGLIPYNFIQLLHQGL

T9: Hse1, P38753
T9 sequence (P38753 208-285, looked up): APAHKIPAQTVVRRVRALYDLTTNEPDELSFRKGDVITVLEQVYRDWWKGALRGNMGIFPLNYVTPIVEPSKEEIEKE

T10: Bzz1-1, P38822
T10 sequence (P38822 478-572, looked up): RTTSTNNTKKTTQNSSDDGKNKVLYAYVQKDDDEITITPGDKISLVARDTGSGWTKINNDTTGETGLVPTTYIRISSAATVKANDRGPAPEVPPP

T11: Bzz1-2, P38822
T11 sequence (P38822 568-633, looked up): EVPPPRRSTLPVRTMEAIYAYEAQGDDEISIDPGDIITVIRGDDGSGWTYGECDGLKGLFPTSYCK

T12: Lsb4, P32793
T12 sequence (P32793 402-468, looked up): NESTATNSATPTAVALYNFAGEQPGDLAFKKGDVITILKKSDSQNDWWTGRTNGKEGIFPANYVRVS

T13: Boi1, P38041
T13 sequence (P38041 1-86, looked up): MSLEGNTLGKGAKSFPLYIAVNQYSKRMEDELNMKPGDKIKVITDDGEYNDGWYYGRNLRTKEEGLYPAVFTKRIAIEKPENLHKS

T14: Fus1, P11710
T14 sequence (P11710 432-512, looked up): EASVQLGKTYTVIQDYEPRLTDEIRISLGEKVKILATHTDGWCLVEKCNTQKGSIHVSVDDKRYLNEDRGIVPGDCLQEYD

T15: Bbc1, P47068
T15 sequence (P47068 1-78, looked up): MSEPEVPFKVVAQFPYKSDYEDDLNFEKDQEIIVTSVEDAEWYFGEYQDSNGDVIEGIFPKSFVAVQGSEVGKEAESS

T16: Cyk3, Q07533
T16 sequence (Q07533 1-83, looked up): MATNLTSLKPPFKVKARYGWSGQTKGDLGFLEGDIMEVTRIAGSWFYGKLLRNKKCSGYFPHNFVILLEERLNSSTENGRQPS

T17: Sla1-3, P32790
T17 sequence (P32790 344-424, looked up): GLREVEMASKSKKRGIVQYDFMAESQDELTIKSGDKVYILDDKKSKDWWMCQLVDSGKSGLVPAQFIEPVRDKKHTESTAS

T18: Abp1, P15891
T18 sequence (P15891 535-592, looked up): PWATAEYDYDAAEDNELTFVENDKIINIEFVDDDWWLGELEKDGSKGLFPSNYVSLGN

T19: Nbp2, Q12163
T19 sequence (Q12163 103-180, looked up): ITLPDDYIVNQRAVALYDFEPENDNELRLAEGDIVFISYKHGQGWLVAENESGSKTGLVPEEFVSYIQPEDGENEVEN

T20: Boi2, P39969
T20 sequence (P39969 32-116, looked up): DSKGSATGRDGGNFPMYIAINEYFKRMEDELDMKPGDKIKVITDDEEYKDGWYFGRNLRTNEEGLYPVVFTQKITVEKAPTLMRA

T21: Myo5, Q04439
T21 sequence (Q04439 1072-1160, looked up): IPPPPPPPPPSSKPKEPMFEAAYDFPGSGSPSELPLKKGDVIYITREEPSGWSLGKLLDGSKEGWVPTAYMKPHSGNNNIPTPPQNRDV


Columns and labels:
Assay in all cases: SPOT array
[1] = molecular target: Rvs167, P39743; conditions: median of control spots 2707
Rvs167, P39743, sequence (P39743 419-482): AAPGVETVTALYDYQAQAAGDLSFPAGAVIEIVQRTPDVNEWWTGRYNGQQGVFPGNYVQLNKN

[2] = molecular target: T1, Cdc25, P04821; conditions: median of control spots 969
[3] = molecular target: T2, Lsb1, P53281; conditions: median of control spots 388
[4] = molecular target: Myo3, P36006; conditions: median of control spots 468
[5] = molecular target: T3, Bud14, P27637; conditions: median of control spots 956
[6] = molecular target: T4, Pex13, P80667; conditions: median of control spots 1341
[7] = molecular target: T5, Lsb3, P43603; conditions: median of control spots 406
[8] = molecular target: T6, Pin3, Q06449; conditions: median of control spots 2171
[9] = molecular target: Bem1-1, P29366; conditions: median of control spots 4282
Bem1-1, P29366, sequence (P29366 55-141): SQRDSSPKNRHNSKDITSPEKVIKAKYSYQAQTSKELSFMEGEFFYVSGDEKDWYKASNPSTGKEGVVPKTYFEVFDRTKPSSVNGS

[10] = molecular target: GST; conditions: median of control spots 978
[11] = molecular target: T7, Sla1-2, P32790; conditions: median of control spots 712
[12] = molecular target: T8, Hof1, Q05080; conditions: median of control spots 4086
[13] = molecular target: T9, Hse1, P38753; conditions: median of control spots 1727
[14] = molecular target: T10, Bzz1-1, P38822; conditions: median of control spots 4446
[15] = molecular target: T11, Bzz1-2, P38822; conditions: median of control spots 4538
[16] = molecular target: T12, Lsb4, P32793; conditions: median of control spots 397
[17] = molecular target: T13, Boi1, P38041; conditions: median of control spots 1162
[18] = molecular target: T14, Fus1, P11710; conditions: median of control spots 1200
[19] = molecular target: T15, Bbc1, P47068; conditions: median of control spots 796
[20] = molecular target: T16, Cyk3, Q07533; conditions: median of control spots 1451
[21] = molecular target: T17, Sla1-3, P32790; conditions: median of control spots 5475
[22] = molecular target: T18, Abp1, P15891; conditions: median of control spots 935
[23] = molecular target: Bem1-2, P29366; conditions: median of control spots 4347
Bem1-2, P29366, sequence (P29366 139-227): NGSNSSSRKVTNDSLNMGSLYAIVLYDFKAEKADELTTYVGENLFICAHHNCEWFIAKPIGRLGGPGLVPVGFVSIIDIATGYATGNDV

[24] = molecular target: Sho1, P40073; conditions: median of control spots 1148
Sho1, P40073, sequence (P40073 287-367): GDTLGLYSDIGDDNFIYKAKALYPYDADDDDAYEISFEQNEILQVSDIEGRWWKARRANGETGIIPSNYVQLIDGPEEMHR

[25] = molecular target: T19, Nbp2, Q12163; conditions: median of control spots 357
[26] = molecular target: T20, Boi2, P39969; conditions: median of control spots 1161
[27] = molecular target: T21, Myo5, Q04439; conditions: median of control spots 471

| Binder | SPOT intensity [1] | SPOT intensity [2] | SPOT intensity [3] | SPOT intensity [4] | SPOT intensity [5] | SPOT intensity [6] | SPOT intensity [7] | SPOT intensity [8] | SPOT intensity [9] | SPOT intensity [10] | SPOT intensity [11] | SPOT intensity [12] | SPOT intensity [13] | SPOT intensity [14] | SPOT intensity [15] | SPOT intensity [16] | SPOT intensity [17] | SPOT intensity [18] | SPOT intensity [19] | SPOT intensity [20] | further results |
| --- | --- | --- | --- | --- | --- | --- | --- | --- | --- | --- | --- | --- | --- | --- | --- | --- | --- | --- | --- | --- | --- |
| NTMKKRPAPPSLPSL | 9 | 58 | 52 | 99 | 21 | 80 | 12 | 57 | 0 | 0 | 1 | 489 | 53 | 60 | 1440 | 63 | 7 | 0 | 15 | 1 | SPOT intensity [21]: 11; SPOT intensity [22]: 205; SPOT intensity [23]: 56; SPOT intensity [24]: 95; SPOT intensity [25]: 120; SPOT intensity [26]: 2; SPOT intensity [27]: 115 |
| RKRAPTPPAPSRSEK | 9 | 15 | 1290 | 20 | 6 | 6 | 8 | 7 | 1 | 1 | 0 | 0 | 3 | 27 | 946 | 29 | 1 | 14 | 105 | 1 | SPOT intensity [21]: 24; SPOT intensity [22]: 274; SPOT intensity [23]: 0; SPOT intensity [24]: 99; SPOT intensity [25]: 283; SPOT intensity [26]: 0; SPOT intensity [27]: 0 |
| YLTRPLPSTPNEDSR | 15 | 0 | 8 | 0 | 1 | 297 | 139 | 0 | 0 | 0 | 0 | 0 | 6 | 0 | 0 | 598 | 0 | 0 | 0 | 0 | SPOT intensity [21]: 1; SPOT intensity [22]: 0; SPOT intensity [23]: 12; SPOT intensity [24]: 1320; SPOT intensity [25]: 0; SPOT intensity [26]: 1; SPOT intensity [27]: 0 |
